Results published in US20240115668A1, “TREATMENT OF SPINAL CORD INJURY WITH PTEN INHIBITOR” (KOLON TISSUEGENE, INC., priority 2020, published 2024).
pIC50: −log10 of the molar value. Where no end group is shown, it is not given here.

How the values were obtained:
PTEN [1] = target: T1, PTEN (Homo sapiens, UniProt P60484); conditions: previous study of Odriozola et al.; read-out: IC50 (in vitro PTEN activity, Odriozola et al.); cited from earlier work
Target sequence in this assay (P60484 whole entry, species assumed): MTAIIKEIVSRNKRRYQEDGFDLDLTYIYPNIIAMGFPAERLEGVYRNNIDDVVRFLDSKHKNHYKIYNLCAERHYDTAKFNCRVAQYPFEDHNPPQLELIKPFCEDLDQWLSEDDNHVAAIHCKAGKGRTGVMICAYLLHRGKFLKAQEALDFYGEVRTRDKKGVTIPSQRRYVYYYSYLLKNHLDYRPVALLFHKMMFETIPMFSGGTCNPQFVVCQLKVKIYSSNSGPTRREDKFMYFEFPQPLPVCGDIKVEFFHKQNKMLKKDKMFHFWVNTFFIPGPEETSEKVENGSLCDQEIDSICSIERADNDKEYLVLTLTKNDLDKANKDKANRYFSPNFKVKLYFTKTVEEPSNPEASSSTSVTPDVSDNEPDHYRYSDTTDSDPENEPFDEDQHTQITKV

PTEN [2] = target: T1, PTEN; test: In vitro PTEN activity assay / IC50 assay (Malachite Green phosphate detection, C8-PIP3 liposome substrate); format: biochemical; parameters: purchased R&D Systems, Inc; conditions: 10 μM peptide, 20 ng recombinant human PTEN, 0.1 mM C8-PIP3 liposome
Target sequence in this assay (P60484 whole entry): as the sequence (P60484 whole entry, species assumed) above
Description: In vitro PTEN activity assay was designed to check PTEN lipid phosphatase activity to convert phosphatidylinositol triphosphate (PIP3) to phosphatidylinositol diphosphate (PIP2) and produce phosphate ion (Pi). 1,2-dioctanoyl-sn-glycero-3-phospho-(1′-myo-inositol-3,4,5-triphosphate) (C8-PIP3) was used as PTEN substrate and prepared as lipid vesicle (liposome) with other phospholipids because PTEN as lipid phosphatase is an interfacial enzyme. For liposome preparation, C8-PIP3, DOPS (1,2-dioeloyl-sn-glycero-phosphoserine) and DOPC (1,2-dioeloyl-sn-glycero-phosphocholine) were mixed together with 800 μL of liposome buffer (50 mM Tris, 100 mM NaCl, 10 mM MgCl2, 5 mM DTT, pH=8.0) to final concentration of 0.1 mM of C8-PIP3, 0.25 mM DOPS and 0.25 mM DOPC. The lipid mixture was then sonicated at 4° C. for 30 min to produce liposome. After sonication, the liposome solution was briefly centrifuged to remove remaining lipids.
For PTEN activity assay, 20 ng of recombinant human PTEN protein was mixed with L of completed liposome solution. PTEN assay buffer (1 mM Tris, 20 mM DTT and 0.5% NP-40, pH=8.0) was added up to 100 μL as final volume. […] After incubation, the inorganic phosphate ions produced by PTEN protein was detected using Malachite Green phosphate detection kit. […]
All data represent experimentation in triplicate and the IC50 values were calculated by Prism 5 software (GraphPad Software). […]

[3] = test system: endogenous Akt protein in PC12 cells; test: Western blot of Akt activation (phosphorylation) level in PC12 cell lysates; format: cell-based, rat; conditions: differentiated PC12 cells, endogenous or overexpressed PTEN; TGN-1 10 and 100 μM, TGN-4 10 μM; 24 hr; anti-phospho Akt antibody
Protocol: PC12 rat pheochromocytoma cells were seeded to 6-well plate (0.6×10^6 cells/well) and cultured with DMEM media containing 7.5% FBS and 7.5% Goat Serum. After the cell confluency reached around 60˜ 70%, NGF (nerve growth factor, 50 ng/mL) was added to the PC12 cells for differentiation and incubated for 5 more days. Then, fresh media containing different amounts of TGN peptides in DMSO solution were added to each well and incubated further for 24 hr. For PTEN overexpression, PC12 cells were seeded in 6-well plate (1.0×10^6 cells/well) and differentiated with NGF (50 ng/mL) as above. DNA-Lipofectamine 2000 mixture was prepared for each well of cells to be transfected by firstly adding 2˜ 2.5 μg of human PTEN c-DNA into 500 μl of Opti-MEM. 3.75-8.75 μl of Lipofectamine 2000™ reagent was added next to the above diluted DNA solution, mixed gently and incubated for 25 minutes at room temperature. Growth media of PC12 cells in 6-well plate was exchanged with fresh media and 500 μl of the DNA-Lipofectamine 2000 complex was added to each well for transfection. Transfected cells were incubated at 37° C. in 5.0% CO2 incubator for 24-48 hours post-transfection before assaying for transgene expression.
After culturing, PC12 cells were collected from the 6-well plate and centrifuged down with bench-top centrifuger to make cell pellet (13,000 rpm, 5 min at RT). […]

Q: With “Cp23: synthetic phosphomimic peptide of Odriozola et al. encompassing PTEN AA368-390, no phosphorylated Serine residues (DVSDNEPDHYRYSDTTDSDPENE; UniProt P60484 368-390, looked up, fragment)” as the substance, how does the pIC50 (PTEN [1]) read?
A: The pIC50 was about 2.99.

Q: With “RRRRRRRR-DEHDTEYTPDYRQETHFNSQPTDKSDVI-amide (RRRRRRRRDEHDTEYTPDYRQETHFNSQPTDKSDVI-NH2) [TGN-5, scrambled peptide of TGN-2/TGN-3]” as the substance, how does the “Inhibition of PTEN activity (in words)” value (PTEN [2]) read?
A: The value was “no significant inhibition of PTEN activity”.

Q: Which “Activation (phosphorylation) level of Akt protein” value [3] does the source give for “RRRRRRRR-SDDEYTDNPDSRYVSDTPVDTEH-amide (RRRRRRRRSDDEYTDNPDSRYVSDTPVDTEH-NH2) [TGN-4, scrambled peptide of TGN-1, negative control]” here?
A: Its value is “did not increase the activation level of AKT protein”.

Q: What about the “Inhibition of PTEN activity (in words)” value (PTEN [2]) of the same substance?
A: Its value is “no significant inhibition of PTEN activity”.
